Assay results taken from patent US20240391996A1.

Assays:
[1] = biological target: recombinant human GH (Pharmaceutical and Medical Device Regulatory Science Society of Japan) (human) (UniProt P01241); assay: cell-based or functional assay
[2] = biological target: recombinant human GH (Pharmaceutical and Medical Device Regulatory Science Society of Japan) (human) (UniProt P01241); assay: GH-GHR binding inhibition ELISA: biotin-labeled GH (5.5 ng/mL) on captured GHR-hFc, antibody varied

recombinant human GH (Pharmaceutical and Medical Device Regulatory Science Society of Japan) (human), sequence (P01241 27-217 limits assumed): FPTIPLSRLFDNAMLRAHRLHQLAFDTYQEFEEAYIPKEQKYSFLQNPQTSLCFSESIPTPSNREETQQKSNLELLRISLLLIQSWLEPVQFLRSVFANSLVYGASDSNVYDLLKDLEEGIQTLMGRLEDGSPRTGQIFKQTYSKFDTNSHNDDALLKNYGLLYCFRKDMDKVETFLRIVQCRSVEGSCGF

GH-dependent Nb2 cell proliferation inhibitory activity (IC50) [1]: 21.5 nM | IC50 [2]: 6.86 nM
Substance: anti-GH mouse mAb (MAB1067, R&D Systems, Inc.) (antibody)
